These results are taken from the supplement of paper PMC5998384.

Series [1] deals with HeLa Kyoto. As to the kind of experiment: solubility in G1/S (NP-40 vs SDS abundance) (log2 ratio); higher = more soluble. The conditions noted are these: cell cycle stage: G1/S.
Series [2] deals with HeLa Kyoto. As to the kind of experiment: melting temperature (median over replicates), in situ; higher = more thermally stable.
Series [3] has as its system HeLa Kyoto. As to the kind of experiment: thermal stability score vs G1/S (z-score of summed log2 fold changes over temperatures); higher = more thermally stable than in G1/S.
The test system of series [4] is HeLa Kyoto. As to the kind of experiment: solubility change mitosis vs G1/S (difference of NP-40 vs SDS log2 ratios) (log2 ratio difference); higher = more soluble in mitosis.
The mark [5] stands for this setting: cell cycle stage: early G1 (4.5 h after nocodazole release).
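For melting temperature (median over replicates), in situ in this document: HeLa Kyoto cells synchronized by double thymidine or nocodazole block, proteins quantified by TMT10plex mass spectrometry, three independent biological replicates.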
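For solubility change mitosis vs G1/S (difference of NP-40 vs SDS log2 ratios) in this document: synchronized HeLa Kyoto cells (double thymidine block for G1/S, nocodazole release for mitosis), protein amounts in NP-40 versus SDS lysates quantified by mass spectrometry, three biological replicates.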
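For solubility in G1/S (NP-40 vs SDS abundance) in this document: HeLa Kyoto cells arrested at G1/S by double thymidine block, proteins quantified by TMT10plex mass spectrometry in mild NP-40 versus SDS extracts, three biological replicates.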
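For thermal stability score vs G1/S (z-score of summed log2 fold changes over temperatures) in this document: synchronized HeLa Kyoto cells, proteins quantified by TMT10plex mass spectrometry, three biological replicates, mitosis taken 0.5 h after nocodazole release, G1/S directly after double thymidine block.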

For “MAQFDTEYQRLEASYSDSPPGEEDLLVHVAEGSKSPWHHIENLDLFFSRVYNLHQKNGFTCMLIGEIFELMQFLFVVAFTTFLVSCVDYDILFANKMVNHSLHPTEPVKVTLPDAFLPAQVCSARIQENGSLITILVIAGVFWIHRLIKFIYNICCYWEIHSFYLHALRIPMSALPYCTWQEVQARIVQTQKEHQICIHKRELTELDIYHRILRFQNYMVALVNKSLLPLRFRLPGLGEAVFFTRGLKYNFELILFWGPGSLFLNEWSLKAEYKRGGQRLELAQRLSNRILWIGIANFLLCPLILIWQILYAFFSYAEVLKREPGALGARCWSLYGRCYLRHFNELEHELQSRLNRGYKPASKYMNCFLSPLLTLLAKNGAFFAGSILAVLIALTIYDEDVLAVEHVLTTVTLLGVTVTVCRSFIPDQHMVFCPEQLLRVILAHIHYMPDHWQGNAHRSQTRDEFAQLFQYKAVFILEELLSPIVTPLILIFCLRPRALEIIDFFRNFTVEVVGVGDTCSFAQMDVRQHGHPQWLSAGQTEASVYQQAEDGKTELSLMHFAITNPGWQPPRESTAFLGFLKEQVQRDGAAASLAQGGLLPENALFTSIQSLQSESEPLSLIANVVAGSSCRGPPLPRDLQGSRHRAEVASALRSFSPLQPGQAPTGRAHSTMTGSGVDARTASSGSSVWEGQLQSLVLSEYASTEMSLHALYMHQLHKQQAQAEPERHVWHRRESDESGESAPDEGGEGARAPQSIPRSASYPCAAPRPGAPETTALHGGFQRRYGGITDPGTVPRVPSHFSRLPLGGWAEDGQSASRHPEPVPEEGSEDELPPQVHKV [ATG9A]”, the “solubility in G1/S (log2)” value in the series on HeLa Kyoto [1] worked out at 0.0202. The melting temperature in the series with HeLa Kyoto [2] (cell cycle stage: G1/S) was 52 °C; in the series on HeLa Kyoto [2] (cell cycle stage: mitosis), 51.8 °C. Further, the thermal stability score is -1.02 in the series on HeLa Kyoto [3] (setting [5]) and -0.681 with HeLa Kyoto [3] (cell cycle stage: mitosis). For the same sequence, the “solubility change mitosis (log2)” value with HeLa Kyoto [4] was -0.221.

As to “MAQKPLRLLACGDVEGKFDILFNRVQAIQKKSGNFDLLLCVGNFFGSTQDAEWEEYKTGIKKAPIQTYVLGANNQETVKYFQDADGCELAENITYLGRKGIFTGSSGLQIVYLSGTESLNEPVPGYSFSPKDVSSLRMMLCTTSQFKGVDILLTSPWPKCVGNFGNSSGEVDTKKCGSALVSSLATGLKPRYHFAALEKTYYERLPYRNHIILQENAQHATRFIALANVGNPEKKKYLYAFSIVPMKLMDAAELVKQPPDVTENPYRKSGQEASIGKQILAPVEESACQFFFDLNEKQGRKRSSTGRDSKSSPHPKQPRKPPQPPGPCWFCLASPEVEKHLVVNIGTHCYLALAKGGLSDDHVLILPIGHYQSVVELSAEVVEEVEKYKATLRRFFKSRGKWCVVFERNYKSHHLQLQVIPVPISCSTTDDIKDAFITQAQEQQIELLEIPEHSDIKQIAQPGAAYFYVELDTGEKLFHRIKKNFPLQFGREVLASEAILNVPDKSDWRQCQISKEDEETLARRFRKDFEPYDFTLDD [CWF19L1]”, the “solubility in G1/S (log2)” value in the series with HeLa Kyoto [1] is 0.0176. Besides, the melting temperature with HeLa Kyoto [2] (cell cycle stage: G1/S) came to 50.4 °C; in the series on HeLa Kyoto [2] (cell cycle stage: mitosis), 50.7 °C. Besides, the values for the thermal stability score with HeLa Kyoto [3] (setting [5]) and in the series on HeLa Kyoto [3] (cell cycle stage: mitosis) were 0.0624 and 0.97, respectively. The “solubility change mitosis (log2)” value in the series on HeLa Kyoto [4] was -0.143.

Turning to “MAQQQMTSSQKALMLELKSLQEEPVEGFRITLVDESDLYNWEVAIFGPPNTLYEGGYFKAHIKFPIDYPYSPPTFRFLTKMWHPNIYENGDVCISILHPPVDDPQSGELPSERWNPTQNVRTILLSVISLLNEPNTFSPANVDASVMFRKWRDSKGKDKEYAEIIRKQVSATKAEAEKDGVKVPTTLAEYCIKTKVPSNDNSSDLLYDDLYDDDIDDEDEEEEDADCYDDDDSGNEES [UBE2R2]”, the “solubility in G1/S (log2)” value in the series on HeLa Kyoto [1] came out at 0.302. For the same sequence, the melting temperature in the series with HeLa Kyoto [2] (cell cycle stage: G1/S) is 51.9 °C; in the series with HeLa Kyoto [2] (cell cycle stage: mitosis) it was 52.9 °C. Also, the thermal stability score is -2.34 in the series on HeLa Kyoto [3] (setting [5]) and -0.967 with HeLa Kyoto [3] (cell cycle stage: mitosis). Moreover, the “solubility change mitosis (log2)” value with HeLa Kyoto [4] turned out to be 0.134.

Regarding “MAQVLRGTVTDFPGFDERADAETLRKAMKGLGTDEESILTLLTSRSNAQRQEISAAFKTLFGRDLLDDLKSELTGKFEKLIVALMKPSRLYDAYELKHALKGAGTNEKVLTEIIASRTPEELRAIKQVYEEEYGSSLEDDVVGDTSGYYQRMLVVLLQANRDPDAGIDEAQVEQDAQALFQAGELKWGTDEEKFITIFGTRSVSHLRKVFDKYMTISGFQIEETIDRETSGNLEQLLLAVVKSIRSIPAYLAETLYYAMKGAGTDDHTLIRVMVSRSEIDLFNIRKEFRKNFATSLYSMIKGDTSGDYKKALLLLCGEDD [ANXA5]”, in the series on HeLa Kyoto [1], the “solubility in G1/S (log2)” value is 0.363. For the same sequence, the melting temperature in the series on HeLa Kyoto [2] (cell cycle stage: G1/S) and in the series with HeLa Kyoto [2] (cell cycle stage: mitosis) was 49.4 °C throughout. For the same sequence, the values for the thermal stability score in the series with HeLa Kyoto [3] (setting [5]) and in the series with HeLa Kyoto [3] (cell cycle stage: mitosis) were 5.64 and 5.5, respectively. Moreover, the “solubility change mitosis (log2)” value with HeLa Kyoto [4] stood at 0.0486.

On to “MARAGPAWLLLAIWVVLPSWLSSAKVSSLIERISDPKDLKKLLRTRNNVLVLYSKSEVAAENHLRLLSTVAQAVKGQGTICWVDCGDAESRKLCKKMKVDLSPKDKKVELFHYQDGAFHTEYNRAVTFKSIVAFLKDPKGPPLWEEDPGAKDVVHLDSEKDFRRLLKKEEKPLLIMFYAPWCSMCKRMMPHFQKAATQLRGHAVLAGMNVYSSEFENIKEEYSVRGFPTICYFEKGRFLFQYDNYGSTAEDIVEWLKNPQPPQPQVPETPWADEGGSVYHLTDEDFDQFVKEHSSVLVMFHAPWCGHCKKMKPEFEKAAEALHGEADSSGVLAAVDATVNKALAERFHISEFPTLKYFKNGEKYAVPVLRTKKKFLEWMQNPEAPPPPEPTWEEQQTSVLHLVGDNFRETLKKKKHTLVMFYAPWCPHCKKVIPHFTATADAFKDDRKIACAAVDCVKDKNQDLCQQEAVKGYPTFHYYHYGKFAEKYDSDRTELGFTNYIRALREGDHERLGKKKEEL [PDIA5]”, for which the “solubility in G1/S (log2)” value with HeLa Kyoto [1] was -0.136. For the same sequence, the melting temperature with HeLa Kyoto [2] (cell cycle stage: G1/S) is 53.8 °C; with HeLa Kyoto [2] (cell cycle stage: mitosis), 54.5 °C. For the same sequence, the values for the thermal stability score in the series with HeLa Kyoto [3] (setting [5]) and in the series with HeLa Kyoto [3] (cell cycle stage: mitosis) were 2.7 and 2.84, respectively. Further, in the series on HeLa Kyoto [4], the “solubility change mitosis (log2)” value is -0.0327.
